# In patent US9393309B2, “Self-gelatinizable nucleic acid” (Kyoto University, priority 2011, dated 2016):
# Tests used:
# RAW264.7 cells = experiment: Release of TNF-α from RAW264.7 cells (ELISA); type: cell-based, murine; details: 0.5, 1 or 2 μg/ml, 8 hours
# Method: In a RPMI1640 medium to which 10% heat inactivated FBS, 0.15% sodium bicarbonate, 100 units/ml penicillin, […] streptomycin and 2 mML-glutamine were added, murine macrophage-like RAW264.7 cells were proliferated in humidified air containing 5% CO2 at 37° C. Subsequently, cells were seeded on a 24-well or 96-well culture plate at a density of 5×10^5 cells/well, and cultured for 24 hours before use.
# The RAW264.7 cells were seeded on a 24-well plate at a density of 2.5×10^5 cells/well, and incubated for 24 hours before treatment. Then, ssDNA, dsDNA, or several kinds of polypodnas diluted in 0.5 ml of Opti-MEM were added to the cells at a final concentration of 0.5, 1 or 2 μg/ml. The cells were incubated for 8 hours, the supernatant was recovered and stored at −70° C. before use. The concentrations of TNF-α and IL-6 in the supernatant were measured by Enzyme-Linked Immunosorbent Assay (ELISA) using an OptEIA™ set (Pharmingen, San Diego, Calif., USA).
# The same experiment as in Example 22 was carried out except that each poolypodna preparation was prepared in the same manner as in Example 1 by using the sequences in Table 1. However, the added DNA was equal amount in each case.
# [1] = Gel formation in a living body after subcutaneous injection of sol; type: in vivo; details: total DNA 2 mM, NaCl 5 mM, back of mouse
# From the text: The hydrogel produced in Example 1 was able to be prepared in a sol state by appropriately adjusting conditions. Therefore, the hydrogel was able to be administered in a living body by injection. […] Thus, it was confirmed that a gel is formed in a living body only by preparing the hydrogel in accordance with the present invention in a sol state and administering the hydrogel to a living body.
# [2] = Release of encapsulated OVA from gel; type: physicochemical; details: DNA 0.5 mM
# Method: By controlling the nature and salt concentration of protruding ends of Tetrapodna, the change of the releasing rate of an encapsulated compound in a gel was examined. Specifically, Tetrapodna (4-18-18) (SEQ ID NOs.: 2, 4, 5 and 6) including a cohesive protruding end and Tetrapodna (4-18-18) (SEQ ID NOs.: 58, 59, 60 and 61) as a control including a non-cohesive protruding end were used. In an aqueous solution of Tetrapodna which had been prepared such that the DNA concentration was 0.5 mM, the NaCl concentration was adjusted to 5 mM or 150 mM. When the NaCl concentration was increased, egg albumin (OVA, concentration of 2.5 μg/μl) was added as an encapsulated substance to cause gelation, and then the percentage of OVA released from the gel with the passage of time was measured.
# [3] = Formation of hydrogel from nucleic acid units without ligase; type: physicochemical; details: without DNA ligase
# Method: A NaCl solution was added to an ODN solution (polypodna) such that the final Na^+ concentration was 5 to 150 mM. The gel formation and the gel strength were measured by a gel strength analyzer (gel strength meter, Nakayamadenki Co., Ltd, Osaka).
# A structure to be a hydrogel (a nucleic acid monomer and an estimated nucleic acid unit) in conditions at room temperature, at 5 mM to 150 mM sodium chloride concentration (150 mM is substantially physiological concentration), and not containing a DNA ligase was elucidated. […] For convenience, nucleic acid units estimated to be formed according to the number of nucleic acid monomers capable of constituting the nucleic acid unit were represented by xxxpodna (xxxpod-like structure forming nucleic acid, xxx is substituted by tri (3), tetra (4) and the like, according to the number of nucleic acid monomers capable of constituting the nucleic acid unit). In Table 2 described below, xxxpodna is an estimated nucleic acid unit, and each of xxx-Y-N is a nucleic acid monomer that can be a constituent element of the nucleic acid unit (xxxpodna) which is mentioned above thereof. When the descriptions of Ys are different from each other, different nucleic acid units can be formed. N denotes numbering of nucleic acid monomers constituting each of the estimated nucleic acid units.
# Unlike (1-1) described above, gelation can be controlled by using a nucleic acid monomer including cohesive protruding ends which are not attached to themselves (that is, not palindrome sequence).
# [4] = Evaluation of gelation at various DNA concentrations and NaCl concentrations; type: physicochemical; design: key: ◯: the mark “∘” is given to cases in which gelation was observed; X: the mark “x” is given to cases of a solution state (sol-state)
# Method: […] The gel formation and the gel strength were measured by a gel strength analyzer (gel strength meter, Nakayamadenki Co., Ltd, Osaka).
# Specifically, by changing the DNA concentrations of an aqueous solution of Tripodona (4-18-18) (X=4) (SEQ ID NOs.: 1, 2 and 3), Tetrapodna (4-18-18) (X=4) (SEQ ID NOs.: 2, 4, 5 and 6), Hexapodna (4-18-18) (X=4) (SEQ ID NOs.: 2, 3, 4, 7, 9 and 10) and Tetrapodna (8-16-16) (X=8) (SEQ ID NOs.: 22, 23, 24 and 25) as shown in the lines of Table 4, and by changing the NaCl concentration as shown in the rows of Table 4, whether or not a gel is formed at various DNA concentrations and NaCl concentrations was evaluated. The results are shown such that the mark “∘” is given to cases in which gelation was observed, and the mark “x” is given to cases of a solution state (sol-state).
# [5] = Temperature conditions for gel formation; type: physicochemical; details: NaCl 150 mM
# Method: Furthermore, we investigated a possibility that temperature conditions are also involved in gelation. Tetrapodna (4-18-18) (SEQ ID NOs.: 2, 4, 5 and 6), Hexapodna (4-18-18) (SEQ ID NOs.: 2, 3, 4, 7, 9 and 10) and Tetrapodna (8-16-16) (SEQ ID NOs.: 22, 23, 24 and 25) were used to examine the temperature conditions for allowing a gel be present or a sol to be present by fixing the NaCl concentration at 150 mM and changing the DNA concentration variously.
# [6] = Percentage of remaining gels with the passage of time; type: physicochemical; details: DNA 0.5 mM, NaCl 150 mM
# Method: Gels were formed by adjusting the NaCl concentration at 150 mM in an aqueous solution containing Tetrapodna (12-14-14) (SEQ ID NOs.: 30, 31, 32 and 33) at a DNA concentration of 0.1 mM, 0.25 mM or 0.5 mM, and the percentage of the remaining gels was measured with the passage of time. The results are shown in a graph in the left upper side of FIG. 17.
# Gels were formed in conditions at a certain DNA concentration (0.5 mM) and a certain NaCl concentration (150 mM), and the percentage of the remaining gels was measured with the passage of time by using Tetrapodna (respectively, SEQ ID NOs.: 2, 4, 5 and 6, SEQ ID NOs.: 18, 19, 20 and 21, SEQ ID NOs.: 22, 23, 24 and 25, SEQ ID NOs.: 26, 27, 28 and 29, as well as SEQ ID NOs.: 30, 31, 32 and 33) having various lengths of the cohesive protruding end (4, 6, 8, 10 or 12 bases). The results are shown in a graph in the left lower side of FIG. 17. […] When 12 hours had passed, the percentage of the remaining gels became about 50%.
# Gels were formed by variously changing the NaCl concentrations (5 mM, 50 mM, 100 mM or 150 mM) of an aqueous solution containing Tetrapodna (12-14-14) (SEQ ID NOs.: 30, 31, 32 and 33) at a DNA concentration of 0.5 mM, and the percentage of the remaining gels was measured with the passage of time. The results are shown in a graph in the right upper side of FIG. 17. […] At a low salt concentration (5 mM), almost all the formed gels became in a sol state when about 6 hours had passed. When the salt concentration was increased to 50 mM, solation tendency was weakened, a change from a gel into a sol occurred moderately (about 40% when 12 hours had passed).
# The percentage of the remaining gels was measured with the passage of time in the same manner as in (8-3) except that Tetrapodna (4-18-18) (SEQ ID NOs.: 2, 4, 5 and 6) was used instead of Tetrapodna (12-14-14) (SEQ ID NOs.: 30, 31, 32 and 33). The results are shown in a graph in the right lower side of FIG. 17. […] In (8-3), Tetrapodna (12-14-14) (the length of the cohesive protruding end is 12 bases) was used. In (8-4), Tetrapodna (4-18-18) (the length of the cohesive protruding end is 4 bases) was used.
# [7] = system: mouse dendritic cell DC2.4; experiment: Stimulation of dendritic cells by gel; type: cell-based; details: gel brought into contact with DC2.4
molecule,measurement,setting,value
"ssDNA36: single strand 36 mer ODN, SEQ ID No. 108 (DNA TCGCTGACGTTGCAGACATCACGTTGACGCTGTCGA; unmodified DNA) [reference compound]",TNF-α release,RAW264.7 cells,the TNF-α release hardly occurred
"control Tetrapodna: Tetrapodna (4-18-18), SEQ ID NOs.: 58, 59, 60 and 61, non-cohesive protruding end, control (nucleic acid, unmodified DNA) DNA 1: AGTCTCGCTGACGTTGCAGACATCACGTTGACGCTGTCGA DNA 2: AGTCTCGACAGCGTCAACGTGAAACGTGAAGCGTCTGCGA DNA 3: AGTCTCGCAGACGCTTCACGTTGCAGACAGACGTTGACGA DNA 4: AGTCTCGTCAACGTCTGTCTGCTGTCTGCAACGTCAGCGA",gel formation in a living body,[1],a gel was not formed in a living body
same,gelation,[2]; NaCl 5 mM or 150 mM,Gelation hardly found
same,percentage of OVA released from the first,[2]; OVA 2.5 μg/μl,~100%
"Hexapodna(4-18-18): six ODNs, SEQ ID NOs.: 2, 3, 4, 7, 9 and 10, 4-base cohesive protruding end (nucleic acid, unmodified DNA) DNA 1: ACGTTCGACAGCGTCAACGTGAAACGTGAAGCGTCTGCGA DNA 2: ACGTTCGCAGACGCTTCACGTTGAGCACAGACGTTGACGA DNA 3: ACGTTCGCTGACGTTGCAGACATCACGTTGACGCTGTCGA DNA 4: ACGTTCGTCAACGTCTGTGCTCGCAGCGTCTTAACGTCGA DNA 5: ACGTTCGACGTTAAGACGCTGCAGACGTTCAGGACTACGA DNA 6: ACGTTCGTAGTCCTGAACGTCTTGTCTGCAACGTCAGCGA",gel formation,[3],gels can be prepared
same,gelation,"[4]; Na+ 2 mM, DNA 0.8 mM",◯
same,gelation,"[4]; Na+ 20 mM, DNA 0.7 mM",X
same,gelation,"[4]; Na+ 50 mM, DNA 0.5 mM",X
same,gelation,"[4]; Na+ 50 mM, DNA 0.6 mM",X
same,gelation,"[4]; Na+ 50 mM, DNA 0.7 mM",◯
same,gelation,"[4]; Na+ 100 mM, DNA 0.4 mM",X
same,gelation,"[4]; Na+ 100 mM, DNA 0.5 mM",◯
same,gelation,"[4]; Na+ 100 mM, DNA 0.6 mM",◯
same,gelation,"[4]; Na+ 150 mM, DNA 0.3 mM",X
same,gelation,"[4]; Na+ 150 mM, DNA 0.4 mM",◯
same,temperature at which gel is present,[5]; DNA concentration 1.0 mM,gel at 65 °C
same,temperature at which sol is present,[5]; DNA concentration 1.0 mM,sol at 75 °C
same,temperature at which gel is present,[5]; DNA concentration 0.3-0.8 mM,gel at 55 °C
same,temperature at which sol is present,[5]; DNA concentration 0.3-0.8 mM,sol at 65 °C
"Tetrapodna(8-16-16): four ODNs, SEQ ID NOs.: 22, 23, 24 and 25, 8-base cohesive protruding end (nucleic acid, unmodified DNA) DNA 1: ACGTACGTTAGCACGACATCAGCGTCTGACGCTTCGTCGA DNA 2: ACGTACGTTCGACGAAGCGTCAGATCTCGTCAACGCTGCA DNA 3: ACGTACGTTGCAGCGTTGACGAGACAGACGCTTGACGCTA DNA 4: ACGTACGTTAGCGTCAAGCGTCTGCGCTGATGTCGTGCTA",initial percentage of gels,[6],about 100%
same,percentage of the remaining gels with the passage of time,[6],decreased with the passage of time only slightly
same,gel formation,[3],gels can be prepared
same,gelation,"[4]; Na+ 2 mM, DNA 0.6 mM",◯
same,gelation,"[4]; Na+ 10 mM, DNA 0.5 mM",X
same,gelation,"[4]; Na+ 20 mM, DNA 0.5 mM",◯
same,temperature at which gel is present,[5]; DNA concentration 0.5 mM,gel at 55 °C
same,temperature at which sol is present,[5]; DNA concentration 0.5 mM,sol at 75 °C
"Tetrapodna (4-18-18) which does not contain a CpG motif: four ODNs, SEQ ID NOs.: 14, 15, 16 and 17, not containing CpG (nucleic acid, DNA, all phosphodiester, methylation of C not given here) DNA 1: AGCTAGGCACCGTAGTCAATCGCCGATGTGTCCAAAGCCT DNA 2: AGCTAGGCTTTGGACACATCGGTGCTCCTACCGTACTCCT DNA 3: AGCTAGGAGTACGGTAGGAGCAGTTTCGGCATGTCCACCT DNA 4: AGCTAGGTGGACATGCCGAAACCGATTGACTACGGTGCCT",immunological stimulation of dendritic cell,[7],did not immunologically stimulate a mouse dendritic cell
